Results as given in US20260028391A1.

Tests used:
[1] = biological target: MPV fusion glycoprotein without the D280N mutation (MPV-F D280) (metapneumovirus); experiment: SPR; F protein loaded on streptavidin sensors, mAb in solution
[2] = biological target: MPV fusion glycoprotein with the D280N mutation (MPV-F N280) (metapneumovirus); experiment: as above
[3] = biological target: fusion glycoprotein of the RSV used in the neutralization assay of Example 1 (respiratory syncytial virus (strain not stated)); experiment: cell-based or functional assay
[4] = biological target: fusion glycoprotein of the MPV D280 used in the neutralization assay of Example 3 (metapneumovirus (strain not stated)); experiment: cell-based or functional assay

| Binder | Kd [1] [pM] | Kd [2] [nM] | RSV Neutralization - IC50 [3] [ng/mL] | MPV D280 Neutralization - IC50 [4] [ng/mL] |
| --- | --- | --- | --- | --- |
| MPK142-v1 (antibody, V domains shown) VH: EVQLVESGGGLVEPGGSLRLSCAASGFTISGYGMSWVRQAPGKGLEWVSSISASSSYIYYGDAMKGRITISRDNGWNSMYLQMNSLRTEDTAVYYCATAPIEPPYFDLWGRGTLVTVSS VL: QSVLTQPPSVSGAPGQRVTISCTGSSSNIGAGYDVHWYQQFPGKAPKVLIYGNNNRPSGVPDRFAASNSGASASLAITGLQAEDEAAYFCQSYDRRLSGPVFGGGTKLTVL | 100000 | 100 | 21.1 | 3 |
| MPK145 (antibody, V domains shown) VH: EVQLVESGGGLVEPGGSLRLSCAASGFTISGYGMSWVRQAPGKGLEWVSSISASSSYIYYGDAMKGRITISRDNGWNSMYLQMNSLRTEDTAVYYCATAPIEPPYFDLWGRGTLVTVSS VL: QSVVTQPPSVSGAPGQRVTISCTGSSSNIGAGYDVHWYQQFPGKAPKVLIYGNNNRPSGVPDRFAASNSGASASLAITGLQAEDEAAYFCQSYDRRLSGPVFGGGTKLTVL | 1 | 0.85 | 23.9 | 7.8 |
| MPK142-v2 (antibody, V domains shown) VH: EVQLVESGGGLVEPGGSLRLSCAASGFTISGYGMSWVRQAPGKGLEWVSSISASSSYIYYGDAMKGRITISRDNGWNSMYLQMNSLRTEDTAVYYCATAPIEPPYFDLWGRGTLVTVSS VL: DIQLTQTPTSLSASVGDRVTFTCRASQNIGFYLNWYQQKPGKAPRLLIYGASNLQSGVPSRFSGSGAGTDFSLTISSLQPEDFATYYCQQSFNTPRTFGQGTKVEIN | 2.7 | 0.2 | 162 | 135 |
| MPK162 (antibody, V domains shown) VH: EVQLVESGGGLVKPGDSLRLSCAASGFSLSSYYMFWIRQAPGKGLEWVSDISGGSTFTNYADSVKGRFTISRDNAKKVLYLQMNSLRVDDSAVYYCVRGSSISPNWFESWGQGALVTVSS VL: QSVLTQPPSVSGAPGQRVTISCTGTSSNIGAGYDVHWYQQVPGTAPKLLIYGNSNRPSGVPDRFSGSKSGTAASLAINGLQTEDEAEYYCQSYDRSLTGSYVFGSGTRVFVR | 100000 | 100 | 25.2 | 102 |
| MPK136 (antibody, V domains shown) VH: EVQLVESGGGLVKPGGSLRLSCEASGFSLSGYYMIWIRQAPGKGLEWISSISGSGNYINYADSVKGRFTVSRDNGHNTLYLQMNSLRVEDTAVYYCATEQTPSPGPFDHWGQGTLVTVSS VL: QVQLVQPPSVSGAPGQRVSISCTGTSSNIGTGYDVHWYQQFPGTSPKLLIYRNTNRPSGVPDRFSGSKSGSSASLAIAGLQAEDEADYYCQSYDRSVSGWVFGGGTKLTVL | 1 | 4.6 | 34.4 | 15.8 |
| MPK204 (antibody, V domains shown) VH: QVQLVESGGGLVKPGGSLRLSCEASGLSLSGYYMIWIRQAPGKGLEWISSISSSSNYIDYADSVKGRFTISRHNGQNTLYLQMNSLRVEDTAVYYCATEQTPSPGPFDLWGQGTLVTVSS VL: QSVLTQPPSVSGAPGQRVTISCTGTSSNIGTGYDVHWYQQFPGTSPKLLIYRNTNRPSGVPDRFSGSKSGSSASLAIAGLQAEDEADYYCQSYDRSVSGWVFGGGTKLTVL | 1 | 2.6 | – | – |
| MPK150-v2 (antibody, V domains shown) VH: EVQLVESGGGLVKPGGSLRLSCEASGISLSGYYMIWIRQAPGKGLEWISSISGSSTYIDYADSVRGRFTISRHNGQNTIYLQMNSLRVEDTAVYFCATEQTPSPGPFELWGRGILVTVSS VL: QSVLTQPPSVSGAPGQRVTIFCTGTSSNIGTGYDVHWYQQFPGTSPKLLIFRNSNRPSGVPDRFSGSKSGSSASLAIAGLQAEDEADYYCQSYDRGVNGWVFGGGTKLTVL | 1 | 0.58 | 14.7 | 15.8 |
| MPK149 (antibody, V domains shown) VH: QVQLVESGGGLVKPGGSLRLSCEASGFTISGYFMIWIRQAPGKGLEWISSISGSSTYTDYAESVKGRFTISRDNGRSTLYLQMNSLRVEDTAVYYCATEQTPSPGPFDLWGQGTLVTVSS VL: QSVVTQPPSVSGAPGQRVTISCTGTSSNIGAGYDVHWYQQFPGTSPRLLINRNTNRPSGVPDRFSGSQSGSSASLAIAGLQAEDEADYYCQSYDRSVSGWVFGGGTKLTVL | 1 | 0.4 | 33.5 | 19.2 |
| MPK130 (antibody, V domains shown) VH: EVQLVESGGGLVKPGGSLTLSCEASGFSISGYYMIWVRQAPGKGLEWVSSISASDTYIDYAVSVQGRFTISRHNTKNSLYLQMSSLRVEDTGVYYCTREKVPSPGPFDCWGQGTLVTVSS VL: QSVLTQPPSVSGAPGQRITISCTGTSSNIGAGYDVHWYQHLPGAAPRLLIYVNTNRPSGVPDRFSGARSGTSASLAITGLQAEDEADYYCQSYDRSLGGWAFGEGTKVTVL | 18 | 1.9 | – | – |
| MPK193 (antibody, V domains shown) VH: EVQLVQSGAEVKKPGESLKISCEASGYSFNNYWIGWVRQMPGKGLEWMGIIYPFDSDTKYSPSFQGHVTISADKSINTAYLQWSSLKASDTAMYFCARFTFGIVLVAGDVTGEGHAFDVWGRGTMVTVTS VL: EIVMMQSPVTLSVSPGGRATLSCRASQSVAGNLAWYQQRPGQAPRLLIYGASTRATGVPARFSGSGSETEFTLTISSLQSEDFAVYYCHHYSNWPQAFGQGTRLDIK | – | – | 1 | – |
| MPK201 (antibody, V domains shown) VH: EVQLVQSGAEVKKPGESLKISCQGSGYSFINYWIGWVRQKPGKGLEWMGIIYPFDSETKYSPSFQGHVTFSADKSINTAYVQWSSLRASDTAMYYCARFTFGLAVTTADVSGEGQAFEIWGQGTMVTVSS VL: EIVMMQSPATLSVSPGERATLSCRASQSVAGNLAWYQQRPGQAPRLLVYGASTRASGVPARFSGSGSETEFTLTISSLQSEDFAVYYCHHYSDWPQAFGQGTRLDIK | – | – | 2.4 | – |
| MPK174-v2 (antibody, V domains shown) VH: EVQLVESGGGLVKPGGSLRLSCAASRFKFGDYYMSWIRQAPGKGLEWVSNISPSSSYTNYADSVKGRFTISRDNAKNLLYLQMNSLRAEDTAVYYCARESCSGGSCSLHGMDVWGQGTTVTVAS VL: QSVLTQPPSVSGAPGQRVTISCTGSSSNIGAGYDVHWYQQLPGTAPKLLIYDNSNRPSGVPDRFSGSKSGTSASLAITGLRAEDDADYYCQSYDRSLGGSIFGGGTKLTVL | 11000 | 100 | 13.6 | 17.7 |
| MPK196 (antibody, V domains shown) VH: QVQLVESGGGLVKPGGSLRLSCAASRFKFGDYYMSWIRQAPGKGLEWVSNISPSSSYTNYADSVKGRFTISRDNANNLLYLQMNSLRAEDTAVYYCARESCSGGSCSLHGMDVWGQGTTVTVAS VL: QSVLTQPPSVSGAPGQRVTISCTGSSSNIGAGYDVHWYQQLPGTAPKLLIYDNSNRPSGVPDRFSGSKSGTSASLAITGLRAEDDADYYCQSYDRSLGGSIFGGGTKLTVL | 3800 | 100 | – | 27 |
| MPK144 (antibody, V domains shown) VH: EVQLVESGGGLVRPGGSLRLSCAASGFTFTGYYMMWIRQAPGKGLEWISDISSSSSYTNYADSVKGRFAISRDNAQNTLYLQMNSLRAEDTAVYYCATEQVPSPGPFDLWGQGTLVTVSS VL: QSVLTQPPSVSGAPGQRVTISCTGSSSNFGAGYDVHWYQQFPGTSPKLLIYRNTNRPSGVPDRFSGSKSGTSASLAITGLQAEDEADYYCQSYDRSLTGWVFGGGTKLTVL | 810 | 100 | 8.2 | 4.9 |
| MPK141 (antibody, V domains shown) VH: EVQLVESGGGLVKPGGSLRLSCAASGFTISGYYMTWIRQAPGKGLEWISYISGSSSYTNYADSVKGRFTISRDNGRNSVYLQMNSLRADDTGVYYCAREETPSPGPFDSWGQGILVTVSS VL: QSVLTQPPSVSGAPGQRIIISCIGSSSNIGTGYDVHWYQQLPGRAPKLLISRNTNRPSGIPDRFSGSKSGTSASLAITGLQADDEADYYCQSYDRGLDGWVFGGGTKLTVL | 1 | 0.84 | 14 | 9.8 |
| MPK133 (antibody, V domains shown) VH: QVQLVQSGGGLVKPGGSLRLSCAASEFSFSGYFMIWIRQAPGKGLEWISYISGSSTYTNYADSVKGRFTISRDNAQNTLYLEMNSLRAEDTGVYYCATEQVPSPGPFDLWGQGTLVTVSS VL: QSVLTQPPSVSGAPGQRVTISCTGSSSNIGAGYDVHWYQQFPGRSPTLLIYRNTNRPSGVPDRFSGSQSGSSASLAITGLQAEDEADYYCQSYDRTLSGWAFGGGTKVTVL | 82 | 3.7 | – | – |
| MPK146 (antibody, V domains shown) VH: QVQLVESGGGLVKPGGSLRLSCAASGFTFSGYYMIWIRQAPGKGLEWIASISGSSNYIDYADSVRGRFTISRDNARNILDLQMNSLRAGDTALYYCATEQVPSPGPFDLWGQGTLVTVSS VL: QSVLTQPPSVSGAPGQRVTISCTGSNSNLGAGYDVHWYQQFPGTSPKLLIYRNTNRPSGVPDRFAGSKSGTSASLAITGLQAEDEADYYCQSYDRSLSGWVFGGGTKLTVL | 1 | 7.2 | – | – |
| MPK158 (antibody, V domains shown) VH: EVQLVESGGGLVKPGGSLRLSCAASGFSISGFYMIWIRQAPGKGLEWISDISASSSYIDYADSVKGRFTISRDNGQNTVHLLMNNLRADDTGVYYCAREQTPSPGPFDLWGQGTLVTVST VL: QPVLTQPPSVSGAPGQRVTISCTGRSSNIGAGYDVHWYQHLPGTSPKLLIYRNSNRPSGVPDRFSGSTSGTSASLAITGLQADDEADYYCQAYDRILGGWAFGGGTKLTVL | 1 | 0.29 | – | – |
